Laboratory results: paper doi:10.1101/698563 (bioRxiv, 2019)

Target: human carcinoembryonic antigen (CEA) (Homo sapiens, UniProt P06731)
Assay: flow cytometry on cells

human carcinoembryonic antigen (CEA), sequence (P06731 35-685): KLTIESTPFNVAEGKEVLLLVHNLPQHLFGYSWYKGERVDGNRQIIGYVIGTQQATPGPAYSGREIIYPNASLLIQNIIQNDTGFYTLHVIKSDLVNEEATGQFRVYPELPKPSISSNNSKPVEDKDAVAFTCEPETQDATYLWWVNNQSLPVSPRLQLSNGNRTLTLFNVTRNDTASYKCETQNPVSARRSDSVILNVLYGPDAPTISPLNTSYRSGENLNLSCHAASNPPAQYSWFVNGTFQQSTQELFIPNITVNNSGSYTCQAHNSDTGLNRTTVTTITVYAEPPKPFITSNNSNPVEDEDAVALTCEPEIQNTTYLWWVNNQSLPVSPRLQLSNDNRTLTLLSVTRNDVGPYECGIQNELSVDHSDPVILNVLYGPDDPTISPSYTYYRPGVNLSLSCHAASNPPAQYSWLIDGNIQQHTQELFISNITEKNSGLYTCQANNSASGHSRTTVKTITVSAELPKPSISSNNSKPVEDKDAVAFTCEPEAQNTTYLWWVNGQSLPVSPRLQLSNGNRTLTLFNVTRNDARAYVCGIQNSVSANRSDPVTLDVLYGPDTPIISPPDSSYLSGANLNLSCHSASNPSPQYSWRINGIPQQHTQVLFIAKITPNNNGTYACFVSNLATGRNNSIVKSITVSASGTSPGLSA

- binding result: binds
B1: Sm3E-TNF (scFv, V domains shown)
VH: QVKLEQSGAEVVKPGASVKLSCKASGFNIKDSYMHWLRQGPGQRLEWIGWIDPENGDTEYAPKFQGKATFTTDTSANTAYLGLSSLRPEDTAVYYCNEGTPTGPYYFDYWGQGTLVTVSS
VL: ENVLTQSPSSMSVSVGDRVTIACSASSSVPYMHWLQQKPGKSPKLLIYLTSNLASGVPSRFSGSGSGTDYSLTISSVQPEDAATYYCQQRSSYPLTFGGGTKLEIK
